Laboratory results published in US20130295110A1.

Assays:
[1] = molecular target: full length human PSMA (human) (UniProt Q04609); assay: FACS, 15 ug/ml on LNCaP cells, PE goat anti-mouse IgG (control of FIG. 19 study)
[2] = molecular target: full length human PSMA (human) (UniProt Q04609); assay: FACS, 15 ug/ml on LNCaP cells, PE goat anti-mouse IgG (control of FIG. 13 study)
[3] = molecular target: full length human PSMA (human) (UniProt Q04609); assay: FACS, 15 ug/ml on LNCaP cells, PE goat anti-mouse IgG (control of FIG. 29 study)
[4] = molecular target: full length human PSMA (human) (UniProt Q04609); assay: FACS, 15 ug/ml on LNCaP cells, PE goat anti-mouse IgG (control of FIG. 24 study)

Chain of full length human PSMA (human) (Q04609 whole entry): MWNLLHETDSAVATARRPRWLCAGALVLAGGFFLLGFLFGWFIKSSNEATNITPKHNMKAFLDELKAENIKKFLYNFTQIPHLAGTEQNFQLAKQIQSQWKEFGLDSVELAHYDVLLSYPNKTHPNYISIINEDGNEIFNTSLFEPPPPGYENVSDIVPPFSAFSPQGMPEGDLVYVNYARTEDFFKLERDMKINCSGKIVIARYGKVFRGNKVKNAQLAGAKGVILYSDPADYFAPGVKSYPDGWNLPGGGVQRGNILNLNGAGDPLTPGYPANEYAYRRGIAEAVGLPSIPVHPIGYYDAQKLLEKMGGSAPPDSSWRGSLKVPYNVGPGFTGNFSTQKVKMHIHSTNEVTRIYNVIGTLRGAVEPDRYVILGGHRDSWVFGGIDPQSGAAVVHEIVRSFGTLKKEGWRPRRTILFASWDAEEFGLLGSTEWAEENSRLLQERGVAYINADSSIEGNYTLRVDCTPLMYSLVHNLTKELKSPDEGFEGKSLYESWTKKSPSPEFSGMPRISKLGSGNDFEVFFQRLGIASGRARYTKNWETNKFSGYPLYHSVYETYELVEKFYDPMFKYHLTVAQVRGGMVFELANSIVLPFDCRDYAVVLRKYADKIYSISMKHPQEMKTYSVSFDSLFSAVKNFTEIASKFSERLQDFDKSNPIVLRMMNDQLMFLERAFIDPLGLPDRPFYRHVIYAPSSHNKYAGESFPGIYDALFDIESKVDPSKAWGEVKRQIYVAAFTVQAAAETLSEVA

Q: For “mouse anti-human PSMA monoclonal antibody, clone J591-A”, which fold change in MFI over secondary antibody alone [1] is on record?
A: Its fold change in MFI over secondary antibody alone is 45.3 fold.

Q: What about the fold-change in MFI over secondary antibody alone [2] of the same substance?
A: The fold-change in MFI over secondary antibody alone was 45.3 fold.

Q: And the fold change in MFI over secondary antibody alone [3]?
A: The fold change in MFI over secondary antibody alone was 14.3 fold.

Q: And the fold change in MFI over secondary antibody alone [4]?
A: Its fold change in MFI over secondary antibody alone is 45.3 fold.
